Where two headings read alike, the source gives them in different places. Where no end group is shown, it is not given here. The star is where a group is joined. Biotin = O=C1N[C@H]2[C@H](CS[C@H]2CCCCC(=O)*)N1
Legend:
dGA (tau 297-390) [1] = molecular target: T1, dGA (tau 297-390) (human, UniProt P10636 614-707); test: direct ELISA
Method: (§1) A series of binding ELISA was performed using various truncated versions of the tau protein and 13mer peptide libraries spanning the entire hT40 molecule for mapping the epitopes of anti-tau scAbs (Full list of protein antigens used is given in Table 14). In general, ELISA plates were coated with 1 μg/ml hT40 or dGA or dGAE or other truncated versions of the protein and in the case of biotinylated peptides, plates were coated with 5 μg/ml Streptavidin followed by 1 μg/ml biotinylated peptide. The plates were blocked with 2% MPBS and scAb samples added at desired starting concentrations and double diluted across the plate. Binding was detected using anti-Human C Kappa HRP conjugated secondary antibody and the resulting immunoreaction was developed and absorbance values measured as described above.

[2] = molecular target: T2, full length human tau protein 2N4R (hT40) (human, UniProt P10636 1-758); test: direct ELISA
T2 construct: recombinant; also called T441
Method: as §1

dGAE (tau 297-391) [3] = molecular target: T3, dGAE (tau 297-391) (human, UniProt P10636 614-708); test: SPR, scAb captured, tau analyte
T3 construct: monomer; also called dGAE95
Summary of the method: (§2)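 scAb captured on flow cell 2 of an antibody-coated chip, flow cell 1 as reference; tau analyte injected 120 s association, 420 s dissociation, glycine pH 2.0 regeneration, in multi-cycle or single-cycle kinetics format. Responses fitted to a 1:1 binding model for kinetics and affinity.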
Target sequence in this assay (P10636 614-708 limits assumed): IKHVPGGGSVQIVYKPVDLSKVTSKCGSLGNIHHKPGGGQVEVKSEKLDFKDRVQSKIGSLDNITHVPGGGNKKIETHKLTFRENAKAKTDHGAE

dGAE (tau 297-391) [4] = molecular target: T3, dGAE (tau 297-391); test: Biacore, for dGAE
Target sequence in this assay (P10636 614-708 limits assumed): as above

dGAE (tau 297-391) [5] = molecular target: T3, dGAE (tau 297-391); test: sandwich ELISA, dGAE titrated, S1D12 mAb capture
Target sequence in this assay (P10636 614-708 limits assumed): as above

[6] = molecular target: T2, full length human tau protein 2N4R …; test: SPR, summary table
Summary of the method: as §2
Target sequence in this assay (P10636 other isoform, or with tags, fused parts or gaps limits assumed): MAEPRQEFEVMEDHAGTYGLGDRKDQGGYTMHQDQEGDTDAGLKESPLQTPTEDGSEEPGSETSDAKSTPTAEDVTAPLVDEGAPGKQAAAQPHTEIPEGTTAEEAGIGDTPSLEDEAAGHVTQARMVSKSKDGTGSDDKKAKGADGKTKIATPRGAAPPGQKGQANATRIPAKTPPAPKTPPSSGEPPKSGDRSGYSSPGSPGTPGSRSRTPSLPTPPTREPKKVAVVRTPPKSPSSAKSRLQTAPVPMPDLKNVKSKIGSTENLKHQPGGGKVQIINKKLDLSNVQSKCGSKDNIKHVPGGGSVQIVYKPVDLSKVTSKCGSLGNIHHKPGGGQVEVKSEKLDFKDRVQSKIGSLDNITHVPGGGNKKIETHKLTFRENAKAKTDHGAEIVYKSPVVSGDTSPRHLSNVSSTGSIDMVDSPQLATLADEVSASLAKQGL

[7] = molecular target: T2, full length human tau protein 2N4R …; test: SPR, scAb captured, tau analyte
Summary of the method: as §2
Target sequence in this assay (P10636 other isoform, or with tags, fused parts or gaps limits assumed): as above

[8] = molecular target: T4, tau fragment 266-359 (R1-3) (human, UniProt P10636 583-676); test: direct ELISA
T4 sequence (P10636 583-676): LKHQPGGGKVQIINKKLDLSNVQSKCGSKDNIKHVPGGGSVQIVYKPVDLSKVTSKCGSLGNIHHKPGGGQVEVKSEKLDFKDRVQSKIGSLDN

dGAE (tau 297-391) [9] = molecular target: T3, dGAE (tau 297-391); test: sandwich ELISA, 423 mAb capture, dGAE titrated, scAb at 10 µg/ml [D00041 Figure 34 cont. O]
[10] = molecular target: T2, full length human tau protein 2N4R …; test: hT40 ELISA
Target sequence in this assay (P10636 other isoform, or with tags, fused parts or gaps limits assumed): as the sequence (P10636 other isoform, or with tags, fused parts or gaps limits assumed) above

tau fragment 369-390 [11] = molecular target: T5, tau fragment 369-390 (human); test: ELISA
T5 peptide: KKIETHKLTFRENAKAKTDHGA
Method: as §1

tau fragment 369-391 [12] = molecular target: T6, tau fragment 369-391 (human); test: ELISA
T6 peptide: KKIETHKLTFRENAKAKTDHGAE
Method: as §1

dGA (tau 297-390) [13] = molecular target: T1, dGA (tau 297-390); test: ELISA
Method: as §1

dGAE (tau 297-391) [14] = molecular target: T3, dGAE (tau 297-391); test: ELISA
Method: as §1

[15] = molecular target: T2, full length human tau protein 2N4R …; test: ELISA
Method: as §1
Target sequence in this assay (P10636 other isoform, or with tags, fused parts or gaps limits assumed): as the sequence (P10636 other isoform, or with tags, fused parts or gaps limits assumed) above

dGAE (tau 297-391) [16] = molecular target: T3, dGAE (tau 297-391); test: direct ELISA
Method: as §1

[17] = molecular target: T2, full length human tau protein 2N4R …; test: SPR, hT40 immobilised, mAb analyte
Target sequence in this assay (P10636 other isoform, or with tags, fused parts or gaps limits assumed): as the sequence (P10636 other isoform, or with tags, fused parts or gaps limits assumed) above

[18] = molecular target: T7, human tau (hT40) with P301S and G335D of Line 66 mice (human, UniProt P10636 1-758); test: Western blot
T7 construct: transgene product in brain homogenate or plasma; also called L66 human tau
T7 sequence (P10636 other isoform, or with tags, fused parts or gaps P301S G335D P301S G335D limits assumed): as the sequence (P10636 other isoform, or with tags, fused parts or gaps limits assumed) above, with P301S, G335D counted along it

aggregated dGAE = molecular target: T8, aggregated dGAE (human, UniProt P10636 614-708, limits assumed); test: capture ELISA, mAb coated at 1 µg/ml, aggregates titrated, S1D12 scAb detection
T8 construct: dGAE aggregated in vitro with DTT, 700 rpm, 37 C, 24 h; also called dGAE aggregates; dGAE agg

tau peptide 306-323 = molecular target: T9, tau peptide 306-323; test: peptide ELISA
T9 peptide: Biotin-VQIVYKPVDLSKVTSKCG

tau peptide 313-336 = molecular target: T10, tau peptide 313-336 (human); test: peptide ELISA
T10 peptide: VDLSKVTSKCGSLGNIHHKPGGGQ

dGA (tau 297-390) [19] = molecular target: T1, dGA (tau 297-390); test: SPR, scAb captured, tau analyte
Summary of the method: as §2
Target sequence in this assay (P10636 614-707 limits assumed): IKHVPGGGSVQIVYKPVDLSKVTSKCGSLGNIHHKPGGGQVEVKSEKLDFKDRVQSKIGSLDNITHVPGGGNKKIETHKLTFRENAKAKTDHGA

tau fragment 369-390 [20] = molecular target: T5, tau fragment 369-390; test: direct ELISA
tau fragment 337-368 [21] = molecular target: tau fragment 337-368 (human); test: direct ELISA
tau fragment 337-368 (human), sequence (peptide, as listed by the source): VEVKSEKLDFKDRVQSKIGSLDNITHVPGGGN

[22] = molecular target: T4, tau fragment 266-359 (R1-3); test: direct ELISA; remark: listed apart in the source
tau fragment 369-391 [23] = molecular target: T6, tau fragment 369-391; test: direct ELISA
[24] = molecular target: T4, tau fragment 266-359 (R1-3); test: direct ELISA; remark: listed apart in the source
dGAE (tau 297-391) [25] = molecular target: T3, dGAE (tau 297-391); test: direct ELISA; remark: listed apart in the source
tau fragment 337-368 [26] = molecular target: tau fragment 337-368 (human); test: direct ELISA; remark: listed apart in the source
tau peptide 341-353 = molecular target: T11, tau peptide 341-353 (human); test: ELISA on biotinylated peptide over streptavidin
T11 peptide: Biotin-SEKLDFKDRVQSK
Method: as §1

[27] = molecular target: T2, full length human tau protein 2N4R …; test: hT40 ELISA; remark: listed apart in the source
Target sequence in this assay (P10636 other isoform, or with tags, fused parts or gaps limits assumed): as the sequence (P10636 other isoform, or with tags, fused parts or gaps limits assumed) above

tau fragment 186-350 = molecular target: T12, tau fragment 186-350 (human, UniProt P10636 503-667); test: direct ELISA
T12 construct: also called m186-350
T12 sequence (P10636 503-667): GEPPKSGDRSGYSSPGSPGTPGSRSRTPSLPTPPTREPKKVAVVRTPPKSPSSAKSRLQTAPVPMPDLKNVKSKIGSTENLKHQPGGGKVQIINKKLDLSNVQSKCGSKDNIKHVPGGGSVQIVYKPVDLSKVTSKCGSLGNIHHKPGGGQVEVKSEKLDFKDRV

B1: E2E8 scAb (scFv, not shown: small tags and cut ends)
scFv: QVQLQESGPSLVKPSQTLSLTCTVSGFSLTDRGVAWVRQAPGKALEWVGTMRSGGTIDYNPALKSRLSITRDTSKSQVFLSLSSVTTEDMAMYYCARGYLSGDRYAWGRGLLVTVSSEGKSSGASGESKVDDQAVLTQPSSVSKSLGQSVSIACSGSRSDIGYGNYVSWFQQIPGSAPKLLIYDTNTRASGVPDRFSGARSGNTATLTINSLQAEDEADYYCANIDSSRSHLFGSGTRLTVLG
notes: scAb
binding result (dGA (tau 297-390) [1]): no binding (tested: 25 ug/ml) | binding result [2]: no binding (tested: 25 ug/ml) | Kd (dGAE (tau 297-391) [3]): 0.401 nM | koff (dGAE (tau 297-391) [3]): 0.000191 s⁻¹ | kon (dGAE (tau 297-391) [3]): 477000 M⁻¹ s⁻¹ | Kd (dGAE (tau 297-391) [4]): 0.4 nM | EC50 (read off the curve) (dGAE (tau 297-391) [5]): ~0.7 nM

B2: CE3 scAb (scFv, not shown: small tags and cut ends)
scFv: QVRLQESGPSLVKPSQTLSVTCTVSGFSLISNAVGWVRQAPGKVPESLAGCSSDGKCYYNSALKSRLDITRDTSKNQISLSLSSVTTDDAAVYYCTRGYYPVYGYDYLGTIDYWGPGLLVTVSSEGKSSGASGESKVDDQAVLTQPSSVSGSLGQRVSITCSGSSSNVGRNDVAWFQQLPGSGLRTIIYGTTSRPSGIPDRFSGSKSGVTATLTIDSLQAEDEADYFCASGDSSAINDIFGSGTRLTVLG
notes: scAb
Kd [6]: 3.79 nM | Kd [7]: 3.79 nM | koff [7]: 0.000662 s⁻¹ | kon [7]: 174000 M⁻¹ s⁻¹ | EC50 (read off the curve) [8]: ~0.3 µg/mL | EC50 (read off the curve) (dGAE (tau 297-391) [9]): ~0.3 µg/mL | EC50 (read off the curve) [10]: ~0.1 µg/mL

B3: MD9/MoD9 scAb (scFv, not shown: small tags and cut ends)
scFv: QVRLQESGPSLVKSSQTLSLTCTVSGFSLTRESIAWVRQAPGKVPEWLGGVGIDGTSYYSPALKSRLSITRDTSKSQASLSLSSVATEDTAMYYCARNYIDFEYWGPGLLVTVSSEGKSSGASGESKVDDQAVLTQLSSVSGSLGQRISITCSGSSSNVGIYDVSWFQQLPGSGLRTVIYGTNNRPSGVPDRFSGSRSGNTATLTISSLQSEDEAIYYCAAGDSSTIAVFGSGTRLTVLG
notes: scAb
binding result (tau fragment 369-390 [11]): binds | binding result (tau fragment 369-391 [12]): binds | binding result (dGA (tau 297-390) [13]): binds | binding result (dGAE (tau 297-391) [14]): binds | binding result [15]: binds

B4: E2B7 scAb (scFv, not shown: small tags and cut ends)
scFv: QVQLQESGPSLVKPSQTLSLTCTVSGFSLTSWGVAWVRQAPGKALEWLGTMRSGGGTEYNPALKSRLSITRDTSKSQVSLSLSSVTTEDMAMYYCARGYLSGIHYAWGRGLLVSVSSEGKSSGASGESKVDDQAVLTQLSSVSGSLGQRVSITCSGSSSNVGDGDYVGWFQQLPGSAPKLLIYSARNRASGVPDRFSGSRSGNTATLTITSLQAEDEADYYCASIDTSRSHIFGSGTRLTVLG
notes: scAb
binding result (dGA (tau 297-390) [1]): no binding (tested: 25 ug/ml) | EC50 (read off the curve) (dGAE (tau 297-391) [16]): ~0.1 µg/mL | binding result [2]: no binding (tested: 25 ug/ml)

B5: S1G2 mAb (antibody, mouse IgG2a, V domains shown)
VH: QVQLQESGPSLVKPSQTLSLTCTVSGFSLTSNSVGWVRQAPGKAPEWVAGIDTDGEEGYNPALNSRLSITRDTSKSQVSLSLSSVTSEDTAVYYCGRSYRADGLAYGYVQAIDYWGPGLLVTVSS
VL: QAVVTQPSSVSGSLGQRVSITCSGSFIGISSVGWFQQLPGSGLRTIIVASDGRPSGVPDRFSMSKSGNTATLTISSLQAEDEADYFCGSSDRTPYTGVFGSGTRLTVLG
notes: sheep-mouse IgG2a chimeric mAb; also called S1G2 antibody
Kd [17]: 0.14 nM | koff [17]: 4.75e-05 s⁻¹ | kon [17]: 340000 M⁻¹ s⁻¹ | binding result [18]: binds | EC50 (read off the curve) (aggregated dGAE): ~30 nM

B6: E1B8 scAb (scFv, not shown: small tags and cut ends)
scFv: QVQLQESGPSLVKPSQTLSLTCTVSGFSLTNYPVGWVRQAPGKALEWIGNIENDGSANYASALKSRLSITRDTSKNQVSLSLSSATTEDTAVYYCGREFGGSDGYTYFVDIDYWGPGLLVTVSSEGKSSGASGESKVDDQAVLTQPSSVSKSLGQSVSITCSGSSSNVGYGNYVSWFQQVPGSAPKILIYGATSRASGVPDRFSGSRSGNTATLTITSLQAEDEADYYCASYDGSSSGVFGSGTRLTVLG
notes: scAb
binding result (tau peptide 306-323): no binding (tested: 25 ug/ml) | EC50 (read off the curve) (tau peptide 313-336): ~2 µg/mL | Kd (dGA (tau 297-390) [19]): 17.7 nM | koff (dGA (tau 297-390) [19]): 0.00242 s⁻¹ | kon (dGA (tau 297-390) [19]): 137000 M⁻¹ s⁻¹

B7: NS2A1 scAb (scFv, not shown: small tags and cut ends)
scFv: QVQLQESGPSLVKPSQTLSLTCTVSGFSLSTNSVGWVRQAPGKAPEWVAGIDTDGEEGFNPVLKSRLSITRDTSKSQVSLSLSNVTSEDTAVYYCGRSYRTDGLAYGYVQAIDYWGPGLLVTISSEGKSSGASGESKVDDQSVLTQPSSVSGSPGQTVSITCSGSYIGSSGVGWFQQLPGSGLRTIIVASDGRPSGVPDGFSMSKSGNTATLTISSLQAEDEADYFCGSSDRTQYTGLFGSGTRLTVLG
notes: scAb
binding result (tau fragment 369-390 [20]): no binding (tested: 25 ug/ml) | Kd [6]: 2.9 nM | binding result (tau fragment 337-368 [21]): no binding (tested: 25 ug/ml) | Kd (dGA (tau 297-390) [19]): 5.4 nM | koff (dGA (tau 297-390) [19]): 0.00102 s⁻¹ | kon (dGA (tau 297-390) [19]): 188000 M⁻¹ s⁻¹ | Kd [7]: 2.9 nM | koff [7]: 0.000739 s⁻¹ | kon [7]: 252000 M⁻¹ s⁻¹ | binding result [22]: no binding (tested: 25 ug/ml) | binding result (tau fragment 369-391 [23]): no binding (tested: 25 ug/ml)

B8: S1D12 scAb (scFv, not shown: small tags and cut ends)
scFv: QVQLQESGPSLVKPSQTLSLTCTVSGFSLNNNAVGWVRQAPGKVPESLVGCSSDGTCYYNSALKSRLDITRDTSKNQISLSLSSVTTDDAAVYYCTRGHYSIYGYDYLGTIDYWGPGLLVTVSSEGKSSGASGESKVDDQAVLTQPSSVSGSLGQRVSITCSGSSSNVGGGNSVGWYQHLPGSGLKTIIYDTNSRPSGVPDRFSGSRSGNTATLTINSLQAEDEGDYYCVTGDSTTHDDLVGSGTRLTVLG
notes: scAb
EC50 (read off the curve) [24]: ~0.5 µg/mL | Kd [6]: 0.122 nM | EC50 (read off the curve) (dGAE (tau 297-391) [25]): ~3 µg/mL | EC50 (read off the curve) (tau fragment 337-368 [26]): ~4 µg/mL | EC50 (read off the curve) (tau peptide 341-353): ~0.8 µg/mL | Kd (dGA (tau 297-390) [19]): 0.344 nM | koff (dGA (tau 297-390) [19]): 0.000418 s⁻¹ | kon (dGA (tau 297-390) [19]): 1.21e+06 M⁻¹ s⁻¹ | Kd [7]: 0.122 nM | koff [7]: 0.00015 s⁻¹ | kon [7]: 1.25e+06 M⁻¹ s⁻¹ | EC50 (read off the curve) [27]: ~1 µg/mL | EC50 (read off the curve) (tau fragment 186-350): ~2 µg/mL | EC50 (read off the curve) [10]: ~0.005 µg/mL

From patent publication US20250355001A1 (GTINVENT, published 2025)
